These results are taken from paper PMC5643063, “Viral infection upregulates myostatin promoter activity in orange-spotted grouper (Epinephelus coioides)”.

The data set has as its target T1, MyoD (Epinephelus coioides (orange-spotted …, UniProt D9IV55 1-269)).
T1 sequence: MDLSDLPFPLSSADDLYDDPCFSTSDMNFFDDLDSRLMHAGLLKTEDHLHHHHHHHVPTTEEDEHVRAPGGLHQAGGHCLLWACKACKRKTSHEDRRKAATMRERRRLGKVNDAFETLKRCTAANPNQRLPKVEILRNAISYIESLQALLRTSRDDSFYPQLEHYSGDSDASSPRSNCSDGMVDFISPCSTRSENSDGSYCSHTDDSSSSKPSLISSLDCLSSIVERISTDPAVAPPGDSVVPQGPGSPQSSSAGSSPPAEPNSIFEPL
Nature of the data set: EMSA; 2 ug MyoD, increasing probe, poly[d(I-C)] 0.1 ng, 5 mM Mg2+; 20 mM HEPES pH 7.9, 50 mM KCl, 5 mM MgCl2, 0.5 mM EDTA, 5 mM DTT, 5% glycerol, 0.1 ng poly[d(I-C)], 30 min room temperature; 6.5% native PAGE 0.5X TBE. The settings on record: protein: recombinant; tags: C-terminal pET-29a His tag likely (NdeI/XhoI primers, no stop codon); chain copies: 2; label: Cy3; blunt. Background: Mobility shift assays separate free from complexed probe on a gel.

B1: E-box E6 probe (E6F/E6R) (dsDNA)
DNA 1: CTGTATGTGGATCATTTGTGTCTTTGGTGG
DNA 2: CCACCAAAGACACAAATGATCCACATACAG
Regarding B1, the binding result is recorded as “binds”.
